Results: patent US20140161804A1 (AbbVie / Abbott, published 2014)

B1: IL17-h10F7M-B20 hIgG1/K mut (antibody, V domains shown)
VH: EVQLVQSGAEVKKPGSSVKVSCKASGYTFTDYEIHWVRQAPGQGLEWMGVNDPESGGTFYNQKFDGRVTLTADESTSTAYMELSSLRSEDTAVYYCTRYDKWYSFEGMDIWGQGTTVTVSS
VL: DIQMTQSPSSLSASVGDRVTITCRASSGIISYIDWFQQKPGKAPKRLIYATFDLASGVPSRFSGSGSGTDYTLTISSLQPEDFATYYCRQVGSYPETFGQGTKLEIK
notes: Full length human IgG1/kappa, IgG1 mut(234,235); also called h10F7-B20; J439M1S2(H)3 #B20
B2: IL17-h10F7M-A6 hIgG1/K mut (antibody, V domains shown)
VH: EVQLVQSGAEVKKPGSSVKVSCKASGYTFTDYEIHWVRQAPGQGLEWIGVNDPDSGGTLYNQKFDGRVTLTADESTSTAYMELSSLRSEDTAVYYCTRYDKWYSFEGMDIWGQGTTVTVSS
VL: DIQMTQSPSSLSASVGDRVTITCSASQGIRSYIDWFQQKPGKSPKRLIYATFDLASGVPSRFSGSGSGTDYTLTISSLQPEDFATYYCRQVGNYPGTFGQGTKLEIK
notes: Full length human IgG1/kappa, IgG1 mut(234,235); also called h10F7-A6; J439M1S2(H)3 #A6
B3: hMAK199-4-h10F7-M11.8 DVD-Ig wt (bispecific antibody, human IgG1, kappa)
heavy: not shown
light: DIQMTQSPSSLSASVGDRVTITCRASQDIENYLNWYQQKPGKAPKLLIYYTSRLQSGVPSRFSGSGSGTDFTLTISSLQPEDFATYFCQQGNTQPPTFGQGTKLEIKRGGSGGGGSGDIQMTQSPSSLSASVGDRVTITCRASSGIISYIDWFQQKPGKAPKRLIYATFDLASGVPSRFSGSGSGTDYTLTISSLQPEDFATYYCRQVGSYPETFGQGTKLEIKRTVAAPSVFIFPPSDEQLKSGTASVVCLLNNFYPREAKVQWKVDNALQSGNSQESVTEQDSKDSTYSLSSTLTLSKADYEKHKVYACEVTHQGLSSPVTKSFNRGEC
notes: DVD-Ig; wild-type IgG1, kappa; GS10 linkers; Uncertain; also called HMAK199-4-h10F7-M11.8 HC DVD wt
B4: hMAK195-21-h10F7-M11.8 DVD-Ig wt (bispecific antibody, human IgG1, kappa)
heavy: not shown
light: DIQMTQSPSSLSASVGDRVTITCRASQLVSSAVAWYQQKPGKAPKLLIYWASARHTGVPSRFSGSGSGTDFTLTISSLQPEDFATYYCQQHYKTPFTFGQGTKLEIKRGGSGGGGSGDIQMTQSPSSLSASVGDRVTITCRASSGIISYIDWFQQKPGKAPKRLIYATFDLASGVPSRFSGSGSGTDYTLTISSLQPEDFATYYCRQVGSYPETFGQGTKLEIKRTVAAPSVFIFPPSDEQLKSGTASVVCLLNNFYPREAKVQWKVDNALQSGNSQESVTEQDSKDSTYSLSSTLTLSKADYEKHKVYACEVTHQGLSSPVTKSFNRGEC
notes: DVD-Ig; wild-type IgG1, kappa; GS10 linkers; also called HMAK195-21-h10F7-M11.8 HC DVD wt
B5: hMAK195-21-h10F7-M11.8 DVD-Ig (bispecific antibody, human IgG1, kappa, L234A L235A)
heavy: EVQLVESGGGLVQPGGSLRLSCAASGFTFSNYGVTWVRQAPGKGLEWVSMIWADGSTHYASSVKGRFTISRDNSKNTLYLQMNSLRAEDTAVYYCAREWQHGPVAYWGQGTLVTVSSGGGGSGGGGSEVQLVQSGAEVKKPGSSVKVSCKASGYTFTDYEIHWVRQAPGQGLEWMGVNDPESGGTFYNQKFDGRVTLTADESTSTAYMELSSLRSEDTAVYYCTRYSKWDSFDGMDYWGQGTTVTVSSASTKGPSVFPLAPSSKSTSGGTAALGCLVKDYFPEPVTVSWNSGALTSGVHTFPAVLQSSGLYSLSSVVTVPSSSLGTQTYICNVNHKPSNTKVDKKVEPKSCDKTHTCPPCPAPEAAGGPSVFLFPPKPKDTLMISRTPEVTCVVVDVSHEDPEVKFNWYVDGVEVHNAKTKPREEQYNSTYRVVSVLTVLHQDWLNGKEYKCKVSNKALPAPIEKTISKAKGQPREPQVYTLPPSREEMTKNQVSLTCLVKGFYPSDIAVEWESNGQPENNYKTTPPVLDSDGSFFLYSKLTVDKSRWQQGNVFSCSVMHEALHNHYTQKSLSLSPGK
light: DIQMTQSPSSLSASVGDRVTITCRASQLVSSAVAWYQQKPGKAPKLLIYWASARHTGVPSRFSGSGSGTDFTLTISSLQPEDFATYYCQQHYKTPFTFGQGTKLEIKRGGSGGGGSGDIQMTQSPSSLSASVGDRVTITCRASSGIISYIDWFQQKPGKAPKRLIYATFDLASGVPSRFSGSGSGTDYTLTISSLQPEDFATYYCRQVGSYPETFGQGTKLEIKRTVAAPSVFIFPPSDEQLKSGTASVVCLLNNFYPREAKVQWKVDNALQSGNSQESVTEQDSKDSTYSLSSTLTLSKADYEKHKVYACEVTHQGLSSPVTKSFNRGEC
notes: DVD-Ig, TNF outer / IL-17 inner domain; IgG1 234,235 mut, kappa; GS10 linkers; also called hMAK195-21-GS10-M11 DVD
B6: hMAK195-24-h10F7-M11.8 DVD-Ig wt (bispecific antibody, human IgG1, kappa)
heavy: not shown
light: DIQMTQSPSSLSASVGDRVTITCKASQLVSSAVAWYQQKPGKAPKLLIYWASTLHTGVPSRFSGSGSGTDFTLTISSLQPEDFATYYCQQHYRTPFTFGQGTKLEIKRGGSGGGGSGDIQMTQSPSSLSASVGDRVTITCRASSGIISYIDWFQQKPGKAPKRLIYATFDLASGVPSRFSGSGSGTDYTLTISSLQPEDFATYYCRQVGSYPETFGQGTKLEIKRTVAAPSVFIFPPSDEQLKSGTASVVCLLNNFYPREAKVQWKVDNALQSGNSQESVTEQDSKDSTYSLSSTLTLSKADYEKHKVYACEVTHQGLSSPVTKSFNRGEC
notes: DVD-Ig; wild-type IgG1, kappa; GS10 linkers; also called HMAK195-24-h10F7-M11.8 HC DVD wt
B7: hMAK195-24-h10F7-M11.8 DVD-Ig (bispecific antibody, human IgG1, kappa, L234A L235A)
heavy: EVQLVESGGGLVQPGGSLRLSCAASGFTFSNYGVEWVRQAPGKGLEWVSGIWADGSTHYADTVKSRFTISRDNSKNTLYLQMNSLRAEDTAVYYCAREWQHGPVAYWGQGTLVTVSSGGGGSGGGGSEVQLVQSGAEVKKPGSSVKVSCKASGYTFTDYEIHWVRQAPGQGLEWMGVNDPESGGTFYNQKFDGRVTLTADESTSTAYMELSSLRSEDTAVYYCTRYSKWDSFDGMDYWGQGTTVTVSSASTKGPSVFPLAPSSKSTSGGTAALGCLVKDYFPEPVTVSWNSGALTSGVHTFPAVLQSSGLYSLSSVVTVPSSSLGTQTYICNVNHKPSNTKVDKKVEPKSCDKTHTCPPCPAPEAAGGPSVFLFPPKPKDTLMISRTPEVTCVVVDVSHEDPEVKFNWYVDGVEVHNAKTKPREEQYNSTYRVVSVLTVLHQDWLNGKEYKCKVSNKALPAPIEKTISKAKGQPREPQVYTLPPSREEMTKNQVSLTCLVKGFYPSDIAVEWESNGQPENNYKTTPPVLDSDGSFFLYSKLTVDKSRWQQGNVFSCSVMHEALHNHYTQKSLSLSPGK
light: DIQMTQSPSSLSASVGDRVTITCKASQLVSSAVAWYQQKPGKAPKLLIYWASTLHTGVPSRFSGSGSGTDFTLTISSLQPEDFATYYCQQHYRTPFTFGQGTKLEIKRGGSGGGGSGDIQMTQSPSSLSASVGDRVTITCRASSGIISYIDWFQQKPGKAPKRLIYATFDLASGVPSRFSGSGSGTDYTLTISSLQPEDFATYYCRQVGSYPETFGQGTKLEIKRTVAAPSVFIFPPSDEQLKSGTASVVCLLNNFYPREAKVQWKVDNALQSGNSQESVTEQDSKDSTYSLSSTLTLSKADYEKHKVYACEVTHQGLSSPVTKSFNRGEC
notes: DVD-Ig; IgG1 234,235 mut, kappa; GS10 linkers; also called hMAK195-24-GS10-M11 DVD

Legend:
[1] = molecular target: T1, Human IL-17A (human, UniProt Q16552 20-155, limits assumed); assay: SPR (Biacore T200), antibody captured by anti-human IgG Fc, antigen in solution
T1 construct: Biotinylated in the ELISAs; purified recombinant protein in SPR; also called hIL17A; hIL-17
Procedure: The binding of antibodies to purified recombinant IL-17 proteins was determined by surface plasmon resonance-based measurements with a Biacore® T200 instrument (GE Healthcare) using running HBS-EP (10 mM HEPES [pH 7.4], 150 mM NaCl, 3 mM EDTA, and 0.005% surfactant P20) containing 0.1 mg/ml BSA at 25° C. All chemicals were obtained from Biacore® AB (GE Healthcare) or otherwise from a source as described in the text. Approximately 5000 RU of goat anti-human IgG (Fcg) fragment specific polyclonal antibody (Pierce Biotechnology Inc, Rockford, Ill.) diluted in 10 mM sodium acetate (pH 4.5) was directly immobilized across a CM5 research grade biosensor chip using a standard amine coupling kit according to manufacturer's instructions and procedures at 25 μg/ml. Unreacted moieties on the biosensor surface were blocked with ethanolamine. Modified carboxymethyl dextran surface in flowcell 2, 3 and 4 were used as a reaction surface. Modified carboxymethyl dextran with Goat IgG in flow cell 1 was used as the reference surface. For kinetic analysis, rate equations derived from the 1:1 Langmuir binding model were fitted simultaneously to association and dissociation phases of all six injections (using global fit analysis with local float for Rmax) with the use of Biacore T200 Evaluation software v.1.0. Purified antibodies were diluted in HEPES-buffered saline for capture across goat anti-human IgG specific reaction surfaces. Antibodies to be captured as ligand (1-5 μg/ml) were injected over reaction matrices at a flow rate of 50 μl/minute. Association phase was monitored for 5 minute, while dissociation phase was monitored for 10-60 min to accommodate for slower off-rates. The association and dissociation rate constants, ka (unit M-1 s-1) and kd (unit s-1) were determined under a continuous flow rate of 50 μl/minute. Rate constants were derived by making kinetic binding measurements at six different antigen concentrations ranging from 0.78 nM to 100 nM, depending on the species of IL-17 tested. The association ka, dissociation rate kd and equilibrium dissociation constant KD were calculated with the use of the same Biacore T200 Evaluation software v.1.0.

[2] = molecular target: T1, Human IL-17A; assay: ELISA, captured antibody, biotin-human IL-17 titrated
Procedure: (§1) The following protocol is used to characterize the binding of IL-17 antibodies to human IL-17 by enzyme-linked immunosorbent assay (ELISA). An ELISA plate was coated with 50 μl per well of goat anti mouse IgG-Fc at 2 μg/ml, overnight at 4° C. The plate was washed 3 times with PBS/Tween. 50 μl Mab diluted to 1 μg/ml in PBS/0.1% BSA was added to appropriate wells and incubated for 1 hour at room temperature (RT). The plate was washed 3 times with PBS/Tween. 50 μl of serial diluted biotin-human IL-17 was added to appropriate wells and incubated for 1 hour at RT. The plate was washed 3 times with PBS/Tween. 50 μl of streptavidin-HRP diluted 1:10,000 in PBS/0.1% BSA was added to appropriate wells and incubated for 1 hour at RT. The plate was washed 3 times with PBS/Tween. 50 μl of TMB was added to appropriate wells and the reaction allowed to proceed for 1 minute. The reaction was stopped with 50 μl/well 2N H₂SO₄ and the absorbance read at 450 nm.

[3] = molecular target: T1, Human IL-17A; assay: ELISA, captured DVD-Ig, biotin-human IL-17 titrated
Procedure: as §1, with “TNF/IL-17 DVD-Ig proteins” for “IL-17 antibodies”, “human TNF and” for “human”, “biotin-human TNF or” for “biotin-human”

[4] = molecular target: T2, Rhesus TNFa (rhesus, UniProt P48094 77-233); assay: SPR (Biacore T200), DVD-Ig captured by anti-human IgG Fc, antigen in solution
T2 construct: also called Rhesus TNF-alpha
Procedure: (§2) The binding of antibodies to purified recombinant IL-17 and TNFα proteins were determined by surface plasmon resonance-based measurements with a Biacore® T200 instrument (GE Healthcare) using running HBS-EP (10 mM HEPES [pH 7.4], 150 mM NaCl, 3 mM EDTA, and 0.005% surfactant P20) containing 0.1 mg/ml BSA at 25° C. All chemicals were obtained from Biacore® AB (GE Healthcare) or otherwise from a different source as described in the text. Approximately 5000 RU of goat anti-human IgG (Fcγ) fragment specific polyclonal antibody (Pierce Biotechnology Inc, Rockford, Ill.) diluted in 10 mM sodium acetate (pH 4.5) was directly immobilized across a CM5 research grade biosensor chip using a standard amine coupling kit according to manufacturer's instructions and procedures at 25 ug/ml. Unreacted moieties on the biosensor surface were blocked with ethanolamine. Modified carboxymethyl dextran surface in flowcell 2, 3 and 4 were used as a reaction surface. Modified carboxymethyl dextran with goat IgG in flow cell 1 was used as the reference surface. For kinetic analysis, rate equations derived from the 1:1 Langmuir binding model were fitted simultaneously to association and dissociation phases of all six injections (using global fit analysis with local float for Rmax) with the use of Biacore T200 Evaluation software v.1.0. Purified antibodies were diluted in HEPES-buffered saline for capture across goat anti-human IgG specific reaction surfaces. Antibodies to be captured as ligand (1-5 μg/ml) were injected over reaction matrices at a flow rate of 50 μl/minute. Association phase was monitored for 5 minutes, while dissociation phase was monitored for 10-60 minutes to accommodate for slower off-rates. The association and dissociation rate constants, ka (unit M-1 s-1) and kd (unit s-1) were determined under a continuous flow rate of 50 μl/minute. Rate constants were derived by making kinetic binding measurements at six different antigen concentrations ranging from 0.78 nM to 100 nM, depending on the species of IL-17 or TNFα tested. The association ka, dissociation rate kd and equilibrium dissociation constant KD were calculated with the use of the same Biacore T200 Evaluation software v.1.0.

[5] = molecular target: T1, Human IL-17A; assay: as above
Procedure: as §2

[6] = molecular target: T3, Cynomolgus monkey IL-17A (cynomolgus monkey, UniProt A0A2K5TTB0 24-155); assay: as above
T3 construct: also called Cyno IL-17AA; Cyno IL17AA
Procedure: as §2

T3 sequence (A0A2K5TTB0 entry or part of it): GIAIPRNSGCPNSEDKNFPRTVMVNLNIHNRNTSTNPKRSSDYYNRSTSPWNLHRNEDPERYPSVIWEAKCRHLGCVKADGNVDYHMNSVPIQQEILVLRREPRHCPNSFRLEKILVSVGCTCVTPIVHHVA
T1 sequence (Q16552 20-155 limits assumed): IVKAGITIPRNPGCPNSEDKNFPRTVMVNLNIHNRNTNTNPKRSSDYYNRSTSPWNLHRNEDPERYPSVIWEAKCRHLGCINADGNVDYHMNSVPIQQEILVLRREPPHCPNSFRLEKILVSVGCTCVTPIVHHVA
T2 sequence (P48094 77-233 limits assumed): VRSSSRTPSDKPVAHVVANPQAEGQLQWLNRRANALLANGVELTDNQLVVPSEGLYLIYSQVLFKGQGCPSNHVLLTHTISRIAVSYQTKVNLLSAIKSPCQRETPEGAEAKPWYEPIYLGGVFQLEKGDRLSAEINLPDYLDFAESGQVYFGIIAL

Binder | Kd [1] | koff [1] | kon [1] | EC50 [2] | EC50 [3] | Kd [4] | koff [4] | kon [4] | Kd [5] | kon [5] | Kd [6] | koff [6] | kon [6] | koff [5]
B1 | 2.14 pM | 6.27e-06 s⁻¹ | 2.92e+06 M⁻¹ s⁻¹ | 0.07 nM |  |  |  |  |  |  |  |  |  | 
B2 | 1.5 pM | 4.48e-06 s⁻¹ | 2.99e+06 M⁻¹ s⁻¹ | 0.08 nM |  |  |  |  |  |  |  |  |  | 
B3 |  |  |  |  | 0.1 nM | 0.00813 nM | 2.48e-05 s⁻¹ | 3.05e+06 M⁻¹ s⁻¹ | 0.0259 nM | 311000 M⁻¹ s⁻¹ | 0.0113 nM | 3.15e-06 s⁻¹ | 278000 M⁻¹ s⁻¹ | 
B4 |  |  |  |  | 0.11 nM | 0.031 nM | 0.000141 s⁻¹ | 4.56e+06 M⁻¹ s⁻¹ | 0.0386 nM | 239000 M⁻¹ s⁻¹ | 0.0109 nM | 2.21e-06 s⁻¹ | 203000 M⁻¹ s⁻¹ | 9.26e-06 s⁻¹
B5 |  |  |  |  | 0.095 nM | 0.0254 nM | 0.000132 s⁻¹ | 5.21e+06 M⁻¹ s⁻¹ | 0.0434 nM | 242000 M⁻¹ s⁻¹ | 0.0253 nM | 6.28e-06 s⁻¹ | 248000 M⁻¹ s⁻¹ | 1.05e-05 s⁻¹
B6 |  |  |  |  | 0.12 nM | 0.0752 nM | 0.00046 s⁻¹ | 6.12e+06 M⁻¹ s⁻¹ | 0.0363 nM | 233000 M⁻¹ s⁻¹ | 0.0201 nM | 4.29e-06 s⁻¹ | 214000 M⁻¹ s⁻¹ | 8.48e-06 s⁻¹
B7 |  |  |  |  | 0.084 nM | 0.0716 nM | 0.000343 s⁻¹ | 4.78e+06 M⁻¹ s⁻¹ | 0.0427 nM | 251000 M⁻¹ s⁻¹ | 0.0241 nM | 6.25e-06 s⁻¹ | 259000 M⁻¹ s⁻¹ | 1.07e-05 s⁻¹
